According to article PMC8891019, “TDP-43 represses cryptic exon inclusion in the FTD–ALS gene UNC13A”:
Positions count from the first letter of the chain named.

How the values were obtained:
[1] = molecular target: T1, TDP-43-MBP (full-length wild-type TDP-43) (UniProt Q13148 1-414); test: EMSA; Kd,app only in figure; much higher affinity than exon or repeat; EMSA: 1 nM RNA, 50 mM Tris-HCl pH 7.5, 100 mM KCl, 2 mM MgCl2, 100 mM beta-mercaptoethanol, 0.1 mg/ml BSA, 30 min, room temperature; TDP-43 0-4 (printed mM in Methods, 0-8 uM in legend); 6% native PAGE, Cy5 imaging; details: protein: recombinant; tags: MBP; Ni-NTA purified; label: 5' Cy3 on strand 1; 3' Cy5 on 18-mer; 18 bp duplex at 3' end of strand 1, 5' ssRNA overhang
T1 sequence (Q13148 whole entry): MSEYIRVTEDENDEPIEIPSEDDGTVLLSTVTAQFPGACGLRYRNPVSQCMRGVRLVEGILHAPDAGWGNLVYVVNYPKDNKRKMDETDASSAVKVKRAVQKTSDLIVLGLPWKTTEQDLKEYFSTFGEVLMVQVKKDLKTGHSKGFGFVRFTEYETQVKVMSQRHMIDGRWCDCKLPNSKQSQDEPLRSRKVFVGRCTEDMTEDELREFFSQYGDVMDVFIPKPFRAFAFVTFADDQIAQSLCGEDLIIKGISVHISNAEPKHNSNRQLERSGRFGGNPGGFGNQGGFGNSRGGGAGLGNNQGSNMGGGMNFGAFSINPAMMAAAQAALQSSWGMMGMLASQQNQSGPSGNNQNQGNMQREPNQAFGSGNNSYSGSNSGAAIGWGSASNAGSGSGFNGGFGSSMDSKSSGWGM

[2] = molecular target: T1, TDP-43-MBP (full-length wild-type …); test: EMSA; Kd,app only in figure; much lower affinity than intron probe; EMSA: 1 nM RNA, 50 mM Tris-HCl pH 7.5, 100 mM KCl, 2 mM MgCl2, 100 mM beta-mercaptoethanol, 0.1 mg/ml BSA, 30 min, room temperature; TDP-43 0-4 (printed mM in Methods, 0-8 uM in legend); 6% native PAGE, Cy5 imaging; details: protein: recombinant, tags: MBP, Ni-NTA purified, label: 5' Cy3 on strand 1, 3' Cy5 on 18-mer
[3] = molecular target: T1, TDP-43-MBP (full-length wild-type …); test: EMSA; Kd,app only in figure; affinity similar to CE Ref; EMSA: 1 nM RNA, 50 mM Tris-HCl pH 7.5, 100 mM KCl, 2 mM MgCl2, 100 mM beta-mercaptoethanol, 0.1 mg/ml BSA, 30 min, room temperature; TDP-43 0-4 (printed mM in Methods, 0-8 uM in legend); 6% native PAGE, Cy5 imaging; details: protein: recombinant; tags: MBP; Ni-NTA purified; label: 5' Cy3 on strand 1; 3' Cy5 on 18-mer; 18 bp duplex at 3' end of strand 1, 5' ssRNA overhang 26 nt

B1: Intron Ref (U), rs12608932 (mixed)
RNA 1: AAUGGAUGGUUGGAUAAAUUGAUGGGUGGAUGGAUGCCUCGCUGCCGUCGCCA
RNA 2: UGGCGACGGCAGCGAGGC
modifications: 5' biotin on 18-mer strand
B1: binds [1].

B2: CE Ref (G), rs12973192 (mixed)
RNA 1: AAGGAUGGAUGGAGAGAUGGGUGAGUGCCUCGCUGCCGUCGCCA
RNA 2: UGGCGACGGCAGCGAGGC
modifications: 5' biotin on 18-mer strand
B2: binds ([2]; 18 bp duplex at 3' end of strand 1, 5' ssRNA overhang 26 nt).

B3: CE Risk (C), rs12973192 (mixed)
RNA 1: B2 RNA 1 with G4C
RNA 2: UGGCGACGGCAGCGAGGC
modifications: 5' biotin on 18-mer strand
B3: binds [3].

B4: Repeat Ref ((GATG)4), rs56041637 (mixed)
RNA 1: UGGAUGGAUGGAUGGAUGGAGCCUCGCUGCCGUCGCCA
RNA 2: UGGCGACGGCAGCGAGGC
modifications: 5' biotin on 18-mer strand
B4: binds ([2]; 18 bp duplex at 3' end of strand 1, 5' ssRNA overhang 20 nt).
